Assay results: patent US20260242515A1 (DUALITY BIOLOGICS SHANGHAI, published 2026)
Numbering of substitutions follows the chain as printed.

Experiments:
[1] = target: T1, ADAM9 on human tumor cells (LS174T, HepG2, Calu-3, Colo205) (human, UniProt Q13443 29-819); assay: cell-based or functional assay
T1 sequence (looked up): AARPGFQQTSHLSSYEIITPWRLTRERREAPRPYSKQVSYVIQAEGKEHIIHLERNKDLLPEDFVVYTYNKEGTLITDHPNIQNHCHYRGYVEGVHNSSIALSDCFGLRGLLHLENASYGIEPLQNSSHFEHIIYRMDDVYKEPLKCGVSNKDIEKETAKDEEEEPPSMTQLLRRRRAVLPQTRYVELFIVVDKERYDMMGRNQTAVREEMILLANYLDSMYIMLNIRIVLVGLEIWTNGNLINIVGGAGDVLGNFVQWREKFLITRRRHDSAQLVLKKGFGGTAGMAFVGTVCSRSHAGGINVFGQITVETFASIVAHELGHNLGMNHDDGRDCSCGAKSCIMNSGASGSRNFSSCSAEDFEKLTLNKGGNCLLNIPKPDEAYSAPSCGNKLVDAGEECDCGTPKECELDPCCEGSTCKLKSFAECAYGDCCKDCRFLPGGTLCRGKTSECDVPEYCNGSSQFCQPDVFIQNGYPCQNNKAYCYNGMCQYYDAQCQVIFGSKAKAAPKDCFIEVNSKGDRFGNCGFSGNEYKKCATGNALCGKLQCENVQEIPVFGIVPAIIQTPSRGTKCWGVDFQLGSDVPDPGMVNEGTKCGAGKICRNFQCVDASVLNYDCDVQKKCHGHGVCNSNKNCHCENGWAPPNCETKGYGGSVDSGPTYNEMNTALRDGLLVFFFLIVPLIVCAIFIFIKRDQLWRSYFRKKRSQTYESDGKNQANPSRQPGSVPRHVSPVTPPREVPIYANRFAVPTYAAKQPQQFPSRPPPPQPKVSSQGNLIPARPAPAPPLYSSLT

[2] = target: T2, Human ADAM9 protein (ACROBiosystems, Cat. No. AD9-H52H7) (human, UniProt Q13443 29-697); assay: indirect ELISA, human ADAM9-His coated at 1 ug/mL
T2 construct: Bought protein; also called Human ADAM-His protein; human ADAM9 antigen; not shown: His tag
T2 sequence (looked up): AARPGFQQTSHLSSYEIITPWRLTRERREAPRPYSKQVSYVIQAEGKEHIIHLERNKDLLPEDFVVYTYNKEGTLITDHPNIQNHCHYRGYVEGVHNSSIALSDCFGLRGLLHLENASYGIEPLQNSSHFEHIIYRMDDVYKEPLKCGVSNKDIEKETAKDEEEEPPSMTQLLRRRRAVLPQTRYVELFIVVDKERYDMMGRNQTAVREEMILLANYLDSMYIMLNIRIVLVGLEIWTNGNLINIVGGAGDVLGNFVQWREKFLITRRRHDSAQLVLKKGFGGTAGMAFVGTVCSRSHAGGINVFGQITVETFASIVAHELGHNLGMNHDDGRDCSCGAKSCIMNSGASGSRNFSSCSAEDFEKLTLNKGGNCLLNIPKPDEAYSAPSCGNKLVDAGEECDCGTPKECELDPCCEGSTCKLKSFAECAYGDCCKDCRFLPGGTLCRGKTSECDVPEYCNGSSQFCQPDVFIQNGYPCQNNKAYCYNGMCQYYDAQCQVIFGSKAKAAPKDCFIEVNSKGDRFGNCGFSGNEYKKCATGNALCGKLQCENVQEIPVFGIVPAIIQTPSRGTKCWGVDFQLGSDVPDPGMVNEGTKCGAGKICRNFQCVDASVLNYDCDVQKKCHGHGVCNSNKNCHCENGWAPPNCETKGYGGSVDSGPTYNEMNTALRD
Protocol: The plate was washed three times with PBST (PBS (pH 7.4) containing 0.05% Tween-20), followed by addition of 200 μL/well of blocking buffer containing 1% bovine serum albumin (BSA) diluted in PBST, and incubated at 37° C. for 1 hour for blocking. After blocking, the blocking buffer was discarded, and the plate was washed once with PBST buffer. The test antibody was diluted in PBST containing 1% BSA with a 3-fold serial dilution starting at 15 μg/mL across 11 doses, and added to the ELISA plate at 100 μL/well, followed by incubation at 37° C. for 1 hour. After incubation, the plate was washed three times with PBST, followed by addition of 100 μL/well of HRP-labeled goat anti-human secondary antibody (Rockland, Cat. No. 609-103-123) diluted in PBST containing 1% BSA, and incubated at room temperature for 45 minutes. The plate was washed six times with PBST, followed by addition of 100 μL/well of TMB chromogenic substrate (Suzhou Yacoo Chemical Reagent Co., Ltd., Cat. No. S0025), and incubated at room temperature in the dark for 10 minutes. The reaction was terminated by adding 50 μL/well of 1 M HCl, and the absorbance was measured at 450 nm using a microplate reader (Thermo, Ascent) for data analysis.

[3] = target: T2, Human ADAM9 protein (ACROBiosystems, …); assay: SPR (Biacore 8K), antibody captured by anti-human Fc on CM5, ADAM9 as analyte
Protocol: Chip preparation: The mouse anti-human IgG (Fc) antibody (Cat. No. 29234600, Cytiva) was diluted to 25 μg/mL in immobilization buffer (10 mM sodium acetate, pH 5.0), specifically by adding 950 μL of the immobilization buffer to 50 μL of the mouse anti-human IgG (Fc) antibody. The dilution was used for immobilization in eight channels. First, the surface of the CM5 chip was activated with 400 mM EDC and 100 mM NHS at a flow rate of 10 μL/min for 420 seconds. Then, 25 μg/mL of the mouse anti-human IgG (Fc) antibody was injected into the test channels at a flow rate of 10 μL/min for approximately 360 seconds, with the level of immobilization at approximately 7000 to 14000 RU. Finally, the chip was blocked with 1 M ethanolamine at a flow rate of 10 μL/min for 420 seconds. The reference channels underwent the same procedures as the test channels.
Ligand capture: Antibodies Ab10, Ab15, Ab16, and hMAB-A (2I.2) were diluted to 4 μg/mL in running buffer (containing 10 mM N-(2-hydroxyethyl)piperazine-N-2-ethanesulfonic acid (HEPES), 150 mM sodium chloride (NaCl), 3 mM ethylenediaminetetraacetic acid (EDTA), 0.005% Tween-20, pH adjusted to 7.4) and injected into the test channels for human IgG (Fc) capture at a flow rate of 10 μL/min at approximately 200 RU. No ligand capture was performed in the reference channels.
Analyte multi-cycle analysis: Human and cynomolgus ADAM9 proteins (human ADAM9 protein purchased from ACRO, Cat. No. AD9-H52H7; monkey ADAM9 protein purchased from ACRO, Cat. No. AD9-C52H7) were diluted 2-fold in running buffer (Table 10). The diluted human or cynomolgus ADAM9 protein was sequentially injected into the test channels and the reference channels at a flow rate of 30 μL/min, with corresponding association and dissociation times. Both the association and dissociation steps were performed in the running buffer. After each concentration analysis, the chip was regenerated with 3 M magnesium chloride at a flow rate of 20 μL/min for 30 seconds to wash away the ligand and any undissociated analyte. For the next concentration analysis, the test channels required re-capture of the same amount of ligand.

[4] = target: T1, ADAM9 on human tumor cells (LS174T, …); assay: cell-based or functional assay; remark: listed apart in the source

B1: Ab10 (antibody, human IgG1, kappa, V domains shown)
VH: QVQLQESGAELKRPGSSVKVSCKASGFTFPLYWMNWVRQRPGRGLEWMGRIIPIFGHTKYNEKFKDRATLTADESSSTAYMELSSLRSDDSAVYYCARGGYYYYPREGFLDYWGQGTSVTVSS
VL: DIVMTQSPASLSVSPGERASISCRSSQSVDYSGDSYMNWYQQKPGQSPRLLIYAASDRESGVPARFSGSKSGTDFTLKINRVEEEDAGTYYCQQSREDPFTFGQGTRVEIKR
notes: also called Ab10-V (variable regions)
EC50 for internalization [1]: 0.16 nM
Maximum internalization rate (%) [1]: 81.3%
EC50 [2]: 0.059 nM
Top (OD450) [2]: 3.4 OD450
Kd [3]: 17.5 nM
koff [3]: 0.00255 s⁻¹
kon [3]: 146000 M⁻¹ s⁻¹

B2: Ab16-X1 (antibody, human IgG1, kappa, V domains shown)
VH: QVQLQQPGTEVVKPGASVKLSCKASGFTFPLYWMHWVRQRPGRGLEWIGRIIPIFGHTKYNEKFKNKATLTADESSSTAYMELRSLTSDDSAVYYCARGGYYYYPREGFLDYWGQGTSVTVSS
VL: B1 VL with A64D, K70G, N80S, R107K, E109D
modifications: linker-payload X1 (camptothecin type) conjugated after TCEP reduction; DAR p=7.8 per antibody; sites not stated
IC50 (nM), proliferation inhibition of Calu-3 cells (CTG, 6 days) [4]: 8.6 nM

B3: Ab15-X2 (antibody, human IgG1, kappa, V domains shown)
VH: B1 VH with E6Q, S7P, R13K, S16A, M48I, L70M, R87T, D89E
VL: B1 VL with A9D, S20T, S22N, A64D, K70G, N80S, R81N, G88A
modifications: linker-payload X2 (camptothecin type) conjugated after TCEP reduction; DAR p=7.8 per antibody; sites not stated
IC50 (nM), proliferation inhibition of Colo205 cells (CTG, 6 days) [4]: 28.5 nM
IC50 (nM), proliferation inhibition of LS174T cells (CTG, 6 days) [4]: 11.6 nM

B4: Ab4 (antibody, human IgG1, kappa, V domains shown)
VH: B1 VH with L11V, L70M, A72R, E74K, R87T
VL: DIVMTQSPSSLSVSPGERATINCRSSQSVDYSGDSYMNWYQQKPGQAPRLLIYAASDLESGVPDRFSGSGSGTDFTLNINGVEEEDAATYYCQQSREDPFTFGQGTKVEIKR
notes: also called Ab04; Ab4-V (variable regions)
EC50 [2]: 0.055 nM
Top (OD450) [2]: 3.06 OD450

B5: Ab16-X2 (antibody, human IgG1, kappa, V domains shown)
VH: B2 VH
VL: B1 VL with A64D, K70G, N80S, R107K, E109D
modifications: linker-payload X2 (camptothecin type) conjugated after TCEP reduction; DAR p=7.9 per antibody; sites not stated
IC50 (nM), proliferation inhibition of Calu-3 cells (CTG, 6 days) [4]: 3.83 nM
IC50 (nM), proliferation inhibition of Colo205 cells (CTG, 6 days) [4]: 29.8 nM
IC50 (nM), proliferation inhibition of LS174T cells (CTG, 6 days) [4]: 8.97 nM

B6: Ab1 (antibody, human IgG1, kappa, V domains shown)
VH: B1 VH with L11V, R43Q, K59D, L70I, A72R, S77N, S85R, D89E
VL: B1 VL with A64D, K70G, N80S, R107K, E109D
notes: also called Ab01; Ab1-V (variable regions)
EC50 [2]: 0.052 nM
Top (OD450) [2]: 3.12 OD450

B7: Ab7 (antibody, human IgG1, kappa, V domains shown)
VH: B1 VH with L11V, R43Q, K59D, L70I, A72R, S77N, S85R, D89E
VL: B1 VL with S22N, S26D, Q46K, A64D, K70G, K78N, R81S, E109D
notes: also called Ab07; Ab7-V (variable regions)
EC50 [2]: 0.06 nM
Top (OD450) [2]: 3.31 OD450
